Like-named read-outs stand apart in the source and are kept apart here.
Columns and labels:
[1] = system: plasma PTH (parathyroid hormone) levels; assay: In vivo screen, PTH-lowering effects in normal rats (plasma PTH by ELISA); set-up: species or system rat
Protocol: PEG-Cinacalcet calcimmetic effects were studied in PTH (parathyroid hormone)-lowering experiments in normal rats. Male SD rats (˜350 g) were IV dosed with different compounds at 1 mg/kg or orally (“PO”) cinacalcet at 10 mg/kg. Plasma samples were collected and prepared at different timepoints (up to 72 hours) after drug administration. The plasma PTH levels were quantified by ELISA.

CYP2D6 = CYP2D6 (Homo sapiens, UniProt P10635); settings: background statement; cited from earlier work
CYP2D6, sequence (P10635 whole entry): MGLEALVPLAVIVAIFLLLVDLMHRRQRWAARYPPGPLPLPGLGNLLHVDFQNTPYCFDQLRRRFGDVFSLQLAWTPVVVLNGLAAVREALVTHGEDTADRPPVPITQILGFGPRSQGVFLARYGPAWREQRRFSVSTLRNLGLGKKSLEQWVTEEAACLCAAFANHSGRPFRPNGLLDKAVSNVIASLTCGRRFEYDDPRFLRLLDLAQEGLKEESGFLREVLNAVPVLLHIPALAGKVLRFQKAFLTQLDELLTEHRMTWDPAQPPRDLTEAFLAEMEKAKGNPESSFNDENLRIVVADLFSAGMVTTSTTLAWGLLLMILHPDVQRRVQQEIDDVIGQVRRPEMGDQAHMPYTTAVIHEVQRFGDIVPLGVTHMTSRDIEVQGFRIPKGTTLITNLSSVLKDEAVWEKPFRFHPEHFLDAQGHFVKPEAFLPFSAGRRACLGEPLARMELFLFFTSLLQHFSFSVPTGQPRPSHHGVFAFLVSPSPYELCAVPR

[2] = Hydrolysis / pharmacokinetics in an in vivo dog study; settings: male, beagle, plasma, po, 10 mg/kg
Protocol: (§1) Briefly, cinacalcet hydrochloride was administered orally to three male beagle dogs to provide a cinacalcet equivalent dose of 2.0 mg/kg. […] For both the cohorts, blood was collected at the following time points: 0 (predose); 10 min, 1, 2, 4, 8, 24, 48, 72, 120 and 144 h.

[3] = Hydrolysis / pharmacokinetics in an in vivo rat study (plasma concentration-time profiles); settings: male, po, 10 mg/kg
Protocol: (§2) Compound (15), Compound (20), Compound (16), Compound (21), Compound (24), Compound (25), Compound (28) and Compound (29), prepared in accordance with Examples, 5, 7, 6, 8, 9, 10, 11 and 12 respectively, were separately administered intravenously to four male rats to provide a cinacalcet equivalent dose of 1 mg/kg. Parent compound cinacalcet prepared in DMSO at 1 mg/kg was separately administrated intravenously to four male rats. For these cohorts, blood was collected at the following time points: 0 (predose), 2 minutes, 10 minutes, 1 hour, 2 hours, 4 hours, 8 hours, 24 hours, 48 hours and 72 hours following administration.

[4] = rat, in vivo, 1 mg/kg; for AUCall / Clearance: iv
Protocol: as §2

[5] = system: plasma PTH (parathyroid hormone) levels; assay: In vivo screen, rat chronic renal insufficiency (CRI) model, 5/6 nephrectomy; settings: 5/6 Nx rats, 6-8 weeks post surgery
Text: The approach set forth in Example 14 is repeated except rats were surgically modified to mimic chronic renal insufficiency through the total removal of one kidney and ⅔ of the other kidney (a 5/6 nephrectomy or “5/6Nx”). […] Parathyroid hormone levels in normal rats are around 100 pg/ml and in 5/6 Nx rats they increase to 500-1000 pg/ml.

[6] = dog, in vivo
Protocol: as §1

[7] = Hydrolysis of compounds in pH 7.4 PBS buffer at 37° C. (HPLC); format: physicochemical
Protocol: The solution was placed into ten different HPLC vials and the HPLC vials were put into a 37° C. incubator. The samples were analyzed by HPLC at different timepoints. When hydrolysis occurred, HPLC confirmed that cinacalcet was released unaltered.

Row | Molecule | PTH-lowering effect (in words) ([1]; IV, 1 mg/kg) | time at which animal PTH levels return to baseline ([1]; IV, 1 mg/kg) [h] | cinacalcet release after intravenous administration (in words) [4] | time for which release of cinacalcet continues following intravenous administration [4] [h] | t1/2 in PBS [7] [h] | also measured
1 | C[C@@H](NCCCc1cccc(C(F)(F)F)c1)c1cccc2ccccc12 [cinacalcet] | – | – | – | – | – | PTH-lowering effect lasts up to ([1]; PO, 10 mg/kg): ~12 h; CYP2D6 inhibition (CYP2D6): inhibitor of CYP2D6; AUC [2]: 0.0178 µg·h/mL; Cmax [2]: 0.00601 µg/mL; Vd/F [2]: 294 L/kg; half-life [2]: 1.77 h; AUC [3]: 0.69 µg·h/mL; Cmax [3]: 0.0974 µg/mL; half-life [3]: 2.98 h
2 | Four-arm-PEG20k-D-valine-acyloxymethyl-carbamate-cinacalcet [Compound (29)] | variable PTH-lowering effects | ~24 | relatively significant amounts of cinacalcet release | 8 to 12 | – | –
3 | Four-arm-PEG20k-L-leucine-acyloxymethyl-carbamate-cinacalcet [Compound (21)] | significant PTH-lowering effects | – | – | – | – | AUCall [4]: 5730 ng·min/mL; Clearance [4]: 12.4 L/h/kg
4 | Four-arm-PEG20k-L-valine-acyloxymethyl-carbamate-cinacalcet [Compound (25)] | variable PTH-lowering effects | ~24 | relatively significant amounts of cinacalcet release | 8 to 12 | – | –
5 | Four-arm-PEG20k-glycine-amide-cinacalcet [Compound (16)] | – | – | – | – | – | reduction of PTH levels (in words) [5]: PTH levels are not reduced as significantly as Compounds (25), (28), and (29)
6 | Four-arm-PEG30k-L-leucine-acyloxymethyl-carbamate-cinacalcet [Compound (31)] | – | – | – | – | – | Cmax versus cinacalcet (in words) [6]: blunted; half-life versus cinacalcet (in words) [6]: increased; time up to which therapeutically relevant levels of cinacalcet are released ([6]; iv): up to 72 hours; AUCall ([6]; iv, 1 mg/kg): 0.176 µg·h/mL; Clearance ([6]; iv, 1 mg/kg): 2.6 L/h/kg; T1/2 ([6]; iv, 1 mg/kg): 0.432 h; Vz(F) ([6]; iv, 1 mg/kg): 97.2 L/kg
7 | mPEG10k-D-valine-acyloxymethyl-carbamate-cinacalcet [Compound (28)] | variable PTH-lowering effects | ~24 | relatively significant amounts of cinacalcet release | 8 to 12 | ~208 | –
8 | mPEG10k-L-isoleucine-acyloxymethyl-carbamate-cinacalcet [(36)] | – | – | – | – | ~470 | –
9 | mPEG10k-L-leucine-acyloxymethyl-carbamate-cinacalcet [Compound (20)] | significant PTH-lowering effects | – | – | – | ~126 | PTH-lowering effect lasts up to ([1]; IV, 1 mg/kg): 24 to 48 h; AUCall [4]: 11200 ng·min/mL; Clearance [4]: 6 L/h/kg
10 | mPEG10k-L-valine-acyloxymethyl-carbamate-cinacalcet [Compound (24)] | variable PTH-lowering effects | ~24 | relatively significant amounts of cinacalcet release | 8 to 12 | ~317 | –
